Patent US8871276B2, “Beta-casein assemblies for mucosal delivery of therapeutic bioactive agents” (Technion Research and Development Foundation Ltd., priority 2008, dated 2014)
Values joined by “and” are separate entries in the source; they are usually repeats but may differ in a detail not shown here. Equal entries are not always repeated. Each block holds one molecule with its values, some of them ahead of it.

Key:
Type in all cases: physicochemical
[1] = Light microscopy (Nomarski DIC) / visual solubility observation; conditions: hepes buffer, neutral pH, with or without β-casein
Experimental: An Olympus BX51 light microscope was operated at Nomarski differential interference contrast (DIC) optics. A 5 μL drop was placed on a glass slide, covered with a cover slide. Images were recorded digitally with an Olympus DP71 digital camera connected to the light microscope. Image processing was performed using Cell A (Olympus).
Bovine β-casein (>90%; Sigma-Aldrich) was dissolved in pH 7.0 hepes buffer containing 200 mM hepes (MP Biomedicals), 10 mM MgCl2 (Sigma-Aldrich), 20 mM EGTA (Sigma-Aldrich) and 10 mM NaCl (Loba Chemie), and was placed over-night at 4° C. under stirring. The protein solutions were prepared at concentrations ranging from 0.5 to 2 wt % (0.21 to 0.83 mM respectively), and were filtered through a porous membrane of 0.45 μm to avoid large protein aggregates. […] Stirring continued for 30 minutes in room temperature. […] The specimens remained stable i.e., no precipitation was observed, for at least 3 weeks at 4° C.

[2] = Water content by Karl Fischer Coulometer
Experimental: In this experiment the water content of celocoxib (CXB), beta-casein (β-CN) 1% nanocarriers, Sigma beta-casein (β-CN, Sigma material), and CXB-loaded β-CN 1% nanocarriers was measured by Metrohm 831 Karl Fischer Coulometer.
In an attempt to reduce the water content, an additional lypholization cycle was performed for the empty and CXB-loaded β-CN 1% nanocarriers. After this second lyophilization cycle water content was measured by Metrohm 831 Karl Fischer Coulometer.
Specifically, the first cycle lasted for 24 hours (data is presented in tables 5-7) then all samples were subjected to an additional cycle of lyophilization that lasted for 48 hours (total of 72 hours). Tables 8 and 9 present the results of samples that were subjected to 24, […], and 72 hours of lyophilization.

[3] = Small angle X-ray scattering (SAXS) of micelles; conditions: 1 wt % β-casein, empty or loaded 1:8 protein:celecoxib, pH ~7
[4] = Small angle X-ray scattering (SAXS) of micelles; conditions: 1 wt % β-casein, empty or loaded 1:8 protein:celecoxib, pH ~7; remark: listed apart in the source
Experimental: The small angle X-ray scattering equipment consisted of a SAXSess camera (Anton-Paar, Graz, Austria) connected to an X-ray generator (Philips, PW 1730/10) operating at 40 kV and 50 mA with a sealed-tube Cu anode. A Gael mirror was used to convert the divergent polychromatic X-ray beam into a focused line-shaped beam of Cu Kα radiation (λ=0.154 nm). The 2D scattering pattern was recorded by a PI-SCX fused fiber optic taper CCD camera from Princeton Instruments, which is a division of Roper Scientific, Inc. (Trenton, N.J., USA). The used CCD detector features a 2084×2084 array with 24×24 μm pixel size (chip size: 50×50 mm). The CCD was operated at −30° C. with 10° C. water-assisted cooling to reduce the thermally generated charge. Cosmic ray correction and background subtraction were performed on the 2D image before further data processing. The 2D image was integrated into the one-dimensional scattering function within a band of 10 mm. The measurement time was 30 min for each scattering curve (6 images of 5 minutes were taken to assist the cosmic ray correction).
The molecular weight of the scattering aggregates were calculated according to Eq. 1:
[formula] where M is the molecular weight, dΣ(0)/dΩ (cm^−1) the forward scattering intensity at q=0, c (g/cm^3) the β-casein concentration, NA the Avogadro number, and ΔρM (cm/g) the scattering length difference per mass, given by: ΔρM=Δρ ν (2)
The scattering length difference Δρ (cm^−2) was calculated using the known chemical composition of the protein and the solvent, and ν (cm^3/g), the specific volume of the protein in the solution that was calculated via density measurement of the solvent and the solution. The micelle aggregation number was then calculated by dividing the molecular weight of the micelles determined with Eq. 1, by the molecular weight of a single protein molecule.
For a particle of arbitrary shape with a scattering density difference of Δρ(r), the pair distance distribution function p(r) (PDDF) is given by: p(r)=r^2Δ ρ^2(r) (3) where Δ ρ^2(r) is the convolution square of Δρ(r) averaged for all directions in space. The PDDF is related to the scattered intensity l(q) by a Fourier transformation, and it enables the determination of the overall shape and size of the scattering objects.
[formula] λ is the wavelength of the incident radiation and θ is the angle between the scattered and incident beam. The function ƒ(r)=p(r)/r (6) is useful to identify flat plate-like particles, although it has no direct physical meaning. For lamellae, this function starts with a linearly increasing part and becomes almost flat when r is equal to the thickness of the lamella. For flat particles with a finite base area, the outer part decreases linearly because of boundary losses. The thickness of the lamella can then be read from the transition point.
The structural characteristics of the micelles in the two pH environments were studied by cryo-TEM and SAXS (Small Angle X-ray Scattering). Cryo-TEM was used to determine the shape of the micelles and to estimate their dimensions between 4 and 40° C. This information was further used to accurately calculate the micelles' dimensions from the SAXS data, and to study how the size and shape are affected by temperature. SAXS measurements also provided the critical micelle concentration (CMC) and the micelle aggregation numbers as a function of temperature. Experiments were performed in the concentration range of 0.1-40 mg/mL protein, at low pH (between 2.1 and 2.6) in dilute lactic acid solution (6 wt %) or HCl and in aqueous solutions at pH 6.7-7.3 in absence of salts or the presence of up to 0.1M NaCl.
SAXS measurements were used to determine the shape and dimensions of the micelles at low pH more precisely, and to evaluate the micelle molecular weight (i.e., the aggregation number). The scattering curves of 20 mg/mL β-casein in lactic acid solution (pH 2.6, IS 0.0022) at different temperatures are shown in FIG. 3a. […]

- Solubility in aqueous buffer (observation) [1]: poor solubility
Molecule: Cc1ccc(-c2cc(C(F)(F)F)nn2-c2ccc(S(N)(=O)=O)cc2)cc1 [Celecoxib, celecoxib, reference compound]

- Solubility in aqueous buffer (observation) [1]: does not dissolve in buffer at all
Molecule: CC(C)CCC[C@@H](C)[C@H]1CC[C@H]2[C@@H]3CC=C4C[C@@H](O)CC[C@]4(C)[C@H]3CC[C@]12C [Cholesterol, cholesterol]

B1: β-CN: Sigma beta-casein raw material powder (protein, UniProt P02666 16-224, looked up)
Beta-casein: RELEELNVPGEIVESLSSSEESITRINKKIEKFQSEEQQQTEDELQDKIHPFAQTQSLVYPFPGPIPNSLPQNIPPLTQTPVVVPPFLQPEVMGVSKVKEAMAPKHKEMPFPKYPVEPFTESQSLTLTDVENLHLPLPLLQSWMHQPHQPLPPTVMFPPQSVLSLSQSKVLPVPQKAVPYPQRDMPIQAFLLYQEPVLGPVRGPFPIIV
- Average water content of lyophilized (dried) powders ([2]; data of Tables 5-7): more than 10 % w/w
- % water, AVR ([2]; β-CN Sigma material, lyophilization time none, average): 13.0%
- % water ([2]; β-CN Sigma material, single sample): 15.0% and 9.4% and 14.7%

B2: β-casein dried: empty β-casein micelles after lyophilization and re-suspension (protein, UniProt P02666 16-224, looked up)
Beta-casein: B1 Beta-casein
modifications: lyophilized micelles
notes: empty β-casein micelles after lyophilization and re-suspension
- Density [3]: 1.23 g/mL
- Rg (from Guinier apr.) [4]: 8.1 nm
- V, from a, b [4]: 2841 nm^3
